Assay results published in paper PMC10786891, “Massively parallel profiling of RNA-targeting CRISPR-Cas13d”.
Positions count from the first letter of the chain named. Names may count otherwise.

T1: EsCas13d, nuclease-dead (Eubacterium siraeum, UniProt B0MS50, R295A;H300A;R849A;H854A)
T1 sequence: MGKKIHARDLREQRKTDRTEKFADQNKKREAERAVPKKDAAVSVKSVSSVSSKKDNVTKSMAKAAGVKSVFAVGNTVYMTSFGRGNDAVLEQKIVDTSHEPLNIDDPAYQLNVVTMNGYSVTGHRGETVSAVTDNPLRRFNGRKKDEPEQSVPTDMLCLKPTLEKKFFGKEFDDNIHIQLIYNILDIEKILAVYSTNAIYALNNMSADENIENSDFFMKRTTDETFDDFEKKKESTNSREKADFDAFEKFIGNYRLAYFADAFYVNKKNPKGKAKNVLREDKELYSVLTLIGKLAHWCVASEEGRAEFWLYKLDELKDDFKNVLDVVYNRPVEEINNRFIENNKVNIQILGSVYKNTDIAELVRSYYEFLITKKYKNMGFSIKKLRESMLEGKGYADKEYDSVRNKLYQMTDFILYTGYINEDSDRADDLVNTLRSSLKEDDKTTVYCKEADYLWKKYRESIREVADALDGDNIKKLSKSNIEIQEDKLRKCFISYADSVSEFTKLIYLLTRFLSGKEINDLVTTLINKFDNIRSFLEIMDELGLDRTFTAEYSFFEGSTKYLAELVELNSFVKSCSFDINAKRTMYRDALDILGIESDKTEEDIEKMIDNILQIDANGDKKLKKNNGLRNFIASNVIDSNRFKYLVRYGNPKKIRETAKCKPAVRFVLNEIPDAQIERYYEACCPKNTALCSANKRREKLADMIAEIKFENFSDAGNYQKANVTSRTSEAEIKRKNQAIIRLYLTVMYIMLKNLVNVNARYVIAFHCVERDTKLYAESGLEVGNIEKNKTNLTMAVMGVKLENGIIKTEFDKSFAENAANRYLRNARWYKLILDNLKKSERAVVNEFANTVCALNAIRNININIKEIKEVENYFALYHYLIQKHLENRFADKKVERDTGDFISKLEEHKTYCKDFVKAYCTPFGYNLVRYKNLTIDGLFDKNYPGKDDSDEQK

B1: target 1 A1C,G5A (mixed)
RNA 1: CACCCGUGCAAAAAUGCAGGGGUCUAAAACUGAGCGGAUAACCUCUCUAUGG
RNA 2: GGGAAUGGAUCCACAUCUACGAAUUCGUACCAUAGAGAGGUUAUCCACUCCCCGAGAUCGGAAGAGCACACGU
B2: target 1 G5U,C22A (mixed)
RNA 1: B1 RNA 1
RNA 2: B1 RNA 2 with C30A, A47U, C51A
B3: target 1 G17U,A20G (mixed)
RNA 1: B1 RNA 1
RNA 2: B1 RNA 2 with A32G, G35U, A47G, C51A
B4: target 1 U8A,A20U (mixed)
RNA 1: B1 RNA 1
RNA 2: B1 RNA 2 with A32U, U44A, A47G, C51A
B5: target 1 C2G,C4U (mixed)
RNA 1: B1 RNA 1
RNA 2: B1 RNA 2 with A47G, C48U, C50G, C51A
B6: target 1 C6A,G12A (mixed)
RNA 1: B1 RNA 1
RNA 2: B1 RNA 2 with G40A, C46A, A47G, C51A
B7: target 1 A9U,G15U (mixed)
RNA 1: B1 RNA 1
RNA 2: B1 RNA 2 with G37U, A43U, A47G, C51A
B8: target 1 insC 3' of 15,insG 3' of 9 (mixed)
RNA 1: B1 RNA 1
RNA 2: GGGAAUGGAUCCACAUCUACGAAUUCGUACCAUAGAGCAGGUUAGUCCGCUCACCGAGAUCGGAAGAGCACACGU
B9: target 1 insC 3' of 8,insA 3' of 6 (mixed)
RNA 1: B1 RNA 1
RNA 2: B8 RNA 2 with C38A, A39G, G41U, U43A, A44U, G45C, U46C, C48A
B10: target 1 insU 3' of 18,insA 3' of 2 (mixed)
RNA 1: B1 RNA 1
RNA 2: GGGAAUGGAUCCACAUCUACGAAUUCGUACCAUAUGAGAGGUUAUCCGCUCAACCGAGAUCGGAAGAGCACACGU
B11: target 1 insU 3' of 15,insC 3' of 13 (mixed)
RNA 1: B1 RNA 1
RNA 2: B8 RNA 2 with C38U, G41C, U42G, A44U, G45A
B12: target 1 insA 3' of 17,insU 3' of 4 (mixed)
RNA 1: B1 RNA 1
RNA 2: B10 RNA 2 with U35G, G36A, C51U, A52C
B13: target 1 insC 3' of 1 (mixed)
RNA 1: B1 RNA 1
RNA 2: GGGAAUGGAUCCACAUCUACGAAUUCGUACCAUAGAGAGGUUAUCCGCUCACCCGAGAUCGGAAGAGCACACGU
B14: target 1 C7U,G13A (mixed)
RNA 1: B1 RNA 1
RNA 2: B1 RNA 2 with G39A, C45U, A47G, C51A
B15: target 1 U8G,A14C (mixed)
RNA 1: B1 RNA 1
RNA 2: B1 RNA 2 with A38C, U44G, A47G, C51A
B16: target 1 insU 3' of 18,insG 3' of 1 (mixed)
RNA 1: B1 RNA 1
RNA 2: B10 RNA 2 with A53G
B17: target 1 insG 3' of 11,insG 3' of 4 (mixed)
RNA 1: B1 RNA 1
RNA 2: B8 RNA 2 with C38A, A39G, G41U, U42G, G45U, U46C, C48G, G49C, C50G
B18: target 1 insG 3' of 22,insC 3' of 18 (mixed)
RNA 1: B1 RNA 1
RNA 2: GGGAAUGGAUCCACAUCUACGAAUUCGUACGCAUACGAGAGGUUAUCCGCUCACCGAGAUCGGAAGAGCACACGU
B19: target 1 C6G,G12C (mixed)
RNA 1: B1 RNA 1
RNA 2: B1 RNA 2 with G40C, C46G, A47G, C51A
B20: target 1 A1U,G5A (mixed)
RNA 1: B1 RNA 1
RNA 2: B1 RNA 2 with C51U
B21: target 1 insA 3' of 21,insU 3' of 20 (mixed)
RNA 1: B1 RNA 1
RNA 2: B18 RNA 2 with G31C, C32A, A35U, C36A
B22: target 1 insA 3' of 6,insG 3' of 3 (mixed)
RNA 1: B1 RNA 1
RNA 2: GGGAAUGGAUCCACAUCUACGAAUUCGUACCAUAGAGAGGUUAUCCAGCUGCACCGAGAUCGGAAGAGCACACGU
B23: target 1 insA 3' of 21,insA 3' of 3 (mixed)
RNA 1: B1 RNA 1
RNA 2: B10 RNA 2 with U33A, A34U, U35A, C51A, A52C
B24: target 1 insU 3' of 18,insC 3' of 1 (mixed)
RNA 1: B1 RNA 1
RNA 2: B10 RNA 2 with A53C
B25: target 1 C6U,C21U (mixed)
RNA 1: B1 RNA 1
RNA 2: B1 RNA 2 with C31U, C46U, A47G, C51A
B26: target 1 insU 3' of 21 (mixed)
RNA 1: B1 RNA 1
RNA 2: GGGAAUGGAUCCACAUCUACGAAUUCGUACCUAUAGAGAGGUUAUCCGCUCACCGAGAUCGGAAGAGCACACGU
B27: target 1 C7G,G15A (mixed)
RNA 1: B1 RNA 1
RNA 2: B1 RNA 2 with G37A, C45G, A47G, C51A
B28: target 1 insG 3' of 6,insA 3' of 6 (mixed)
RNA 1: B1 RNA 1
RNA 2: B22 RNA 2 with A47G, G48A, C49G, U50C, G51U
B29: target 1 insC 3' of 13,insG 3' of 10 (mixed)
RNA 1: B1 RNA 1
RNA 2: B8 RNA 2 with C38A, A39G, G40C, A44G, G45A

target: T1, EsCas13d, nuclease-dead; assay: crRNA (strand 1, pre-loaded); Mg2+; 40 mM Tris-HCl pH 7.5, 150 mM NaCl, 6 mM MgCl2, 1 mM DTT, 0.1% Tween-20, 0.2 mg/ml BSA; 25 C; 10 min per concentration, then washed; details: tags: His6-TwinStrep-SUMO cleaved; N-terminal SNAP kept (SNAP-Surface 488); label: 3' end held by stalled T7 RNA polymerase

| Binder | Kd [nM] |
| --- | --- |
| B1 | 26 ± 9 |
| B2 | 54 ± 14 |
| B3 | 40 ± 6 |
| B4 | 80 ± 21 |
| B5 | 54 ± 16 |
| B6 | 7.07 ± 0.35 |
| B7 | 46 ± 11 |
| B8 | 20.8 ± 1 |
| B9 | 17.7 ± 0.9 |
| B10 | 33.5 ± 2.6 |
| B11 | 19.3 ± 2.7 |
| B12 | 44 ± 5 |
| B13 | 9.1 ± 0.6 |
| B14 | 6.2 ± 0.7 |
| B15 | ~80 |
| B16 | 27.4 ± 1.3 |
| B17 | 54 ± 13 |
| B18 | 73 ± 23 |
| B19 | 15.1 ± 0.7 |
| B20 | 34 ± 6 |
| B21 | 19.7 ± 1.9 |
| B22 | 13.1 ± 0.5 |
| B23 | 12.2 ± 0.6 |
| B24 | 23.5 ± 2 |
| B25 | 6.2 ± 0.4 |
| B26 | 24 ± 1.6 |
| B27 | 22.5 ± 1.6 |
| B28 | 10.6 ± 1.1 |
| B29 | 15.8 ± 1.7 |
